Consider 2 molecules from PMC10457294 (Nature Communications, 2023).

B2: VACV M2 (vaccinia virus M2), recombinant, His-tagged (natural protein)
chain: VEYKNTICPPRQDYRYWYFAAELTIGVNYDINSTIIGECHMSESYIDRNANIVLTGYGLEINMTIMDTDQRFVAAAEGVGKDNKLSVLLFTTQRLDKVHHNISVTITCMEMNCGTTKYDSDLPESIHKSSSCDITINGSCVTCVNLETDPTKINPHYLHPKDKYLYHNSEYGMRGSYGVTFIDELNQCLLDIKELSYDICYRE

The target of data set [1] is B2. The data set is described as follows: far-Western, overlay or dot blot. Particulars: both partners purified.
Data set [2] addresses T1, human B7.2 ectodomain fused to human Fc (human, UniProt P42081-1 26-238).
T1 construct: also called hB7.2-Fc; hB7.2-hFc; not shown: Fc (human), C-terminal, kept
T1 sequence (looked up): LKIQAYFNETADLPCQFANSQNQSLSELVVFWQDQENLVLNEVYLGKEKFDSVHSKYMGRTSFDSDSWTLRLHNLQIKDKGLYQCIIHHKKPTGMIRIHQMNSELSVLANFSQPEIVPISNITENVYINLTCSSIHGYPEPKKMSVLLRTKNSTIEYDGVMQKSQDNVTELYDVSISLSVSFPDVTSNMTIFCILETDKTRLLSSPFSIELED
The data set is described as follows: far-Western, overlay or dot blot. The settings on record: both partners purified.

Data set [3] concerns the molecule itself. The experiment in a line: non-reducing against reducing SDS-PAGE.

B1: human B7.1 ectodomain fused to human Fc (Fc fusion, UniProt P33681-1 35-234, looked up)
chain: VIHVTKEVKEVATLSCGHNVSVEELAQTRIYWQKEKKMVLTMMSGDMNIWPEYKNRTIFDITNNLSIVILALRPSDEGTYECVVLKYEKDAFKREHLAEVTLSVKADFPTPSISDFEIPTSNIRRIICSTSGGFPEPHLSWLENGEELNAINTTVSQDPETELYAVSSKLDFNMTTNHSFMCLIKYGHLRVNQTFNWNTT
notes: also called hB7.1-Fc; hB7.1-hFc; not shown: Fc (human), C-terminal, kept
Consider B1, for which the binding result in data set [1] is “binds”.

Take B2: the binding result in data set [2] and in data set [3] was “binds” throughout.
